Three molecules from US20250340613A1 (JOINT STOCK COMPANY BIOCAD, published 2025) can be followed below.

Experiment [1] deals with T1, IL5R-His, Interleukin-5 receptor subunit alpha (Homo sapiens) aa 22-342 (Homo sapiens, UniProt Q01344 22-342).
T1 construct: not shown: His tag as the name implies
T1 sequence (looked up): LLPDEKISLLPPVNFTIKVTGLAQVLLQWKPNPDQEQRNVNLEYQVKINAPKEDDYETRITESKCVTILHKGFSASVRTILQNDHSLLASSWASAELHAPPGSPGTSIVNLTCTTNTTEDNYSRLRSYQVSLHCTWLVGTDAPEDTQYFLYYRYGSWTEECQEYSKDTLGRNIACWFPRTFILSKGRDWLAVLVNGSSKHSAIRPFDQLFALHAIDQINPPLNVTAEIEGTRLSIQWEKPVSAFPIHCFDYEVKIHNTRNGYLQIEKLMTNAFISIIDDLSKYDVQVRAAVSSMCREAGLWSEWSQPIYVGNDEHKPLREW
Briefly: BLI Octet RED 384; antibody on ProA sensor, antigen 30 ug/ml.

In experiment [2] the target is T1, IL5R-His, Interleukin-5 receptor …. Briefly: BLI Octet RED 384; antibody on ProA sensor, antigen 30 ug/ml (757.6 nM); response at end of association. The protocol:
(§1) Experimental study of nonspecific binding of bispecific chimeric antibodies to non-target antigens was performed on Forte Bio Octert RED 384. Protein A (ProA) biosensors (ForteBio) were immersed into a solution containing antibodies at a concentration of 10 μg/ml for 150 seconds to immobilize same. The baseline was recorded in a 1×KB solution for 30 seconds. The antibody-loaded sensors were then immersed into wells containing non-target antigens at a concentration of 30 μg/ml for 150 seconds. Complex dissociation was then recorded for 30 seconds.
(§2) The reference sensors went through all the steps as the sensors used to record analyte sensograms did, with the exception of the association step—at the association step, the sensors were immersed in a kinetic buffer solution without analyte (the reference sensor signals were measured in parallel with the recording of the main sensograms). The reference signal was subtracted from the signal received on sensors interacting with the analyte during the processing of sensograms.
(§3) Sensograms were processed using ForteBio Octet Data Analysisn 9.0 software. To report no non-specific interaction, the recorded signal level was checked at the end of the association step (the response parameter).
On the technique in general: In BLI a coated tip is dipped into the sample, and binding shifts an interference pattern.

Experiment [3] deals with T2, extracellular domain of the human PD-1 protein (hPD1ex-H6F) (Homo sapiens, UniProt Q15116 21-170).
T2 construct: Molecular weight 20.6 kDa; made in CHO cells; also called hPDlex-H6F; not shown: C-terminal His and FLAG tags
Nature of the experiment: BLI Octet RED 384; antibody on ProA sensor, antigen in solution; 1:1 global fit. How it is done:
(§4) The experiments were carried out using a kinetic buffer solution (hereinafter referred to as 1×KB) having the following formulation: 4.3 mM Na₂HPO₄; 136.9 mM NaCl, 1.5 mM KH₂PO₄; 2.7 mM KCl; the volume fraction of the added Tween 20 was 0.1%; the mass fraction of the added BSA (bovine serum albumin) was 0.1%; pH 7.4. Before the measurement, the ProA sensors were regenerated with a solution of 50 mM glycine and hydrochloric acid, pH 1.8 (5 seconds in the regenerating solution, 5 seconds in 1×KB, three repetitions). In the case of the hPD1ex-H6F and hCSF1R_His antigens, the Protein A (ProA) biosensors (ForteBio) were immersed in a solution with antibodies at a concentration of 10 μg/ml for 60 seconds to immobilize same. The baseline was recorded in 1×KB for 60 seconds. The sensors loaded with the antibody were then immersed into wells containing a solution of the target antigen (analyte) in a kinetic buffer for 90 seconds. Measurements were performed for solutions with hPDlex-H6F analyte at concentrations of 2.50 μg/ml (121.4 nM), 1.25 μg/ml (60.7 nM), 0.625 μg/ml (30.35 nM). […] Then we detected complex dissociation in 1×KB for 210 s for hPDlex-H6F, 300 s for hCSF1R_His.
(§5) All measurements were carried out at 30° C., orbital mixing speed was 1,000 revolutions per minute.
(§6) To obtain numerical values of kinetic constants (kₒₙ is the on/association rate constant, kdis is the dissociation rate constant, KD is the equilibrium dissociation constant or affinity constant), the resulting sensograms were processed according to the 1:1 interaction model using Global Fit (selection of one set of kon, kdis, KD constants to analyze several sensograms of different concentrations) of the ForteBio Octet Data Analysis 9.0 software.

Experiment [4] concerns the target T3, extracellular domain of the human CSF1R protein (hCSF1R_His) (Homo sapiens, UniProt P07333 20-512).
T3 construct: range 20-512; Molecular weight 57.4 kDa; made in CHO cells; also called hCSF1_His; not shown: C-terminal His and FLAG tags
Described as above. How it is done:
as §4, §5, §6

The target of experiment [5] is T3, extracellular domain of the human CSF1R …. Nature of the experiment: BLI Octet RED 384; antibody on ProA sensor, antigen 30 ug/ml (522.5 nM); response at end of association. How it is done:
as §1, §2, §3

Experiment [6] concerns the target T4, biotinylated peptide [NH2]…JQS[CH2CH2]biotin comprising a fragment of the human CD20 sequence (human, [NH2] at the N-terminus; [CH2CH2]biotin at the C-terminus; the letter J at position 20 is printed so and is not a standard residue code).
T4 construct: also called CD20 peptide
Briefly: BLI Octet RED 384; biotinylated peptide on SAX sensor, antibody in solution; 1:1 global fit. The protocol: In the case of the biotinylated CD20 peptide, the peptide at a concentration of 5 μg/ml was immobilized on the surface of SAX sensors (High Precision Streptavidin (SAX) biosensors, ForteBio) for 120 seconds. The baseline was recorded in a 1×KB solution for 120 seconds. The sensors containing the loaded peptide were immersed into wells containing the antibody solution (analyte) in 1×KB for 15 seconds. Measurements were carried out for solutions with analyte (antibodies in the case of CD20 peptide) at concentrations of 150 μg/ml, 75 μg/ml, 37.5 μg/ml. Complex dissociation was recorded in 1×KB for 120 seconds.
as §5, §6

T2 sequence (Q15116 21-170 limits assumed, form in doubt): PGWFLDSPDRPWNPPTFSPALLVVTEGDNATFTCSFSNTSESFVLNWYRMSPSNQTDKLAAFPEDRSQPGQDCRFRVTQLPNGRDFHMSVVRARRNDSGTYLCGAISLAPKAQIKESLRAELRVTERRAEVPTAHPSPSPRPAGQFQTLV
T4 sequence (peptide, as listed by the source): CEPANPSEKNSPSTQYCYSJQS
T3 sequence (P07333 20-512 limits assumed): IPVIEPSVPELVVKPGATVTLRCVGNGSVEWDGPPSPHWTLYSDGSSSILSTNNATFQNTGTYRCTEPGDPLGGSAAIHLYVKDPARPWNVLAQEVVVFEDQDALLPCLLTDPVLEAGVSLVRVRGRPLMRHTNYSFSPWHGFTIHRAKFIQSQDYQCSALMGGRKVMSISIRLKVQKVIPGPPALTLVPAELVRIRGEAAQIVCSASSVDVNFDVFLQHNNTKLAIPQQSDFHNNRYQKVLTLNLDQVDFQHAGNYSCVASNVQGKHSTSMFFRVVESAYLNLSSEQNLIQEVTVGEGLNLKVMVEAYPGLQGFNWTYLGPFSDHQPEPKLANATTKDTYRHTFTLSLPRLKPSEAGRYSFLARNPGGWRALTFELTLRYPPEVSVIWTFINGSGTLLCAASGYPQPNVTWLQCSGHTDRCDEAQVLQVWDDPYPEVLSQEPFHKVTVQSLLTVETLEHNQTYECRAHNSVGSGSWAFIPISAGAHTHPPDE

B1: 02-006, bivalent bispecific chimeric antibody that specifically binds to PD1 and CSF1R (bispecific antibody, human IgG1, kappa, L234A L235A)
heavy 1: QVQLVQSGGGLVQPGGSLRLSCAASGFTFSSYWMYWVRQVPGKGLEWVSAIDTGGGRTYYADSVKGRFAISRVNAKNTMYLQMNSLRAEDTAVYYCARDEGGGTGWGVLKDWPYGLDAWGQGTLVTVSSASTKGPSVFPLAPSSKSTSGGTAALGCLVKDYFPEPVTVSWNSGALTSGVHTFPAVLQSSGLYSLSSVVTVPSSSLGTQTYICNVNHKPSNTKVDKRVEPKSCDKTHTCPPCPAPEAAGGPSVFLFPPKPKDTLYITREPEVTCVVVDVSHEDPEVKFNWYVDGVEVHNAKTKPREEQYNSTYRVVSVLTVLHQDWLNGKEYKCKVSNKALPAPIEKTISKAKGQPREPQVCTLPPSRDELTKNQVSLSCAVKGFYPSDIAVEWESNGQPENNYKTTPPVLDSDGSFFLVSKLTVDKSRWQQGNVFSCSVMHEALHNHYTQKSLSLSPGK
light 1: QPVLTQPLSVSVALGQTARITCGGNNIGSKNVHWYQQKPGQAPVLVIYRDSNRPSGIPERFSGSNSGNTATLTISRAQAGDEADYYCQVWDSSTAVFGTGTKLTVLQRTVAAPSVFIFPPSDEQLKSGTASVVCLLNNFYPREAKVQWKVDNALQSGNSQESVTEQDSKDSTYSLSSTLTLSKADYEKHKVYACEVTHQGLSSPVTKSFNRGEC
heavy 2: not shown
light 2: QAGLTQPPSVSVAPGQTARITCGGNNIGSKSVHWYQQKPGQAPVLVVYGDSDRPSGIPERFSGSNSGNTATLTISRVEAGDEADYYCQVWDISSDHVVFGGGTQLTVLQRQVKPEAWLSSGPSPGPGRLQLVCHVSGFYPKPVWVMWMRGEQEQQGTQLGDILPNANWTWYLRATLDVADGEAAGLSCRVKHSSLEGQDIILYWRGSC
notes: Produced in CHO cells
What is called Kd is the concentration at which binding is half-saturated. Higher therefore signals a looser complex. The term koff denotes the first-order rate constant of dissociation. One may read the kon as a measure of how fast the partners come together. Read a high kon as faster complex formation. On to B1, for which the binding result in experiment [1] is on record as “no binding (tested: 757.6 nM)”. The “Signal level (nm)” value in experiment [2] was determined as 0.0153 nm. Besides, in experiment [3], the affinity, expressed as Kd, was 2.51 nM; the koff came out at 0.000691 s⁻¹; the kon was determined as 275000 M⁻¹ s⁻¹. In experiment [4], this molecule displayed an equilibrium dissociation constant (Kd) of 0.797 nM, a koff of 0.000286 s⁻¹ and a kon of 359000 M⁻¹ s⁻¹. In experiment [5], the “Signal level (nm)” value is 0.573 nm.

B2: 02-008, bivalent bispecific chimeric antibody that specifically binds to CD20 and CSF1R (bispecific antibody, human IgG1, kappa, L234A L235A)
heavy 1: EVQLVESGGGLVQPGGSLRLSCAASGYTFTSYNMHWVRQAPGKGLEWVGAIYPGNGDTSYNQKFKGRFTISVDKSKNTLYLQMNSLRAEDTAVYYCARVVYYSNSYWYFDVWGQGTLVTVSSASTKGPSVFPLAPSSKSTSGGTAALGCLVKDYFPEPVTVSWNSGALTSGVHTFPAVLQSSGLYSLSSVVTVPSSSLGTQTYICNVNHKPSNTKVDKRVEPKSCDKTHTCPPCPAPEAAGGPSVFLFPPKPKDTLYITREPEVTCVVVDVSHEDPEVKFNWYVDGVEVHNAKTKPREEQYNSTYRVVSVLTVLHQDWLNGKEYKCKVSNKALPAPIEKTISKAKGQPREPQVCTLPPSRDELTKNQVSLSCAVKGFYPSDIAVEWESNGQPENNYKTTPPVLDSDGSFFLVSKLTVDKSRWQQGNVFSCSVMHEALHNHYTQKSLSLSPGK
light 1: DIQMTQSPSSLSASVGDRVTITCRASSSVSYMHWYQQKPGKAPKPLIYAPSNLASGVPSRFSGSGSGTDFTLTISSLQPEDFATYYCQQWSFNPPTFGQGTKVEIKRTVAAPSVFIFPPSDEQLKSGTASVVCLLNNFYPREAKVQWKVDNALQSGNSQESVTEQDSKDSTYSLSSTLTLSKADYEKHKVYACEVTHQGLSSPVTKSFNRGEC
heavy 2: not shown
light 2: B1 light 2
notes: Produced in CHO cells
With B2, in experiment [1], the binding result is listed as “no binding (tested: 757.6 nM)”. Moreover, the figures for the Kd in experiment [6] and in experiment [4] were 892 nM and 0.549 nM, respectively. For the same molecule, the koff in experiment [6] stood at 0.329 s⁻¹; in experiment [4], 0.000236 s⁻¹. For the same molecule, the kon in experiment [6] came out at 369000 M⁻¹ s⁻¹; in experiment [4], 429000 M⁻¹ s⁻¹. For the same molecule, the “Signal level (nm)” value stood at 0.0098 nm in experiment [2] and 0.548 nm in experiment [5].

B3: 02-007, bivalent bispecific chimeric antibody that specifically binds to PD1 and CSF1R (bispecific antibody, human IgG1, kappa, L234A L235A)
heavy 1: QVQLVESGGGLVRPGGSLRLSCAASEFTFDDYAMSWVRQAPGKGLEWVSAISWNGGSTNYADSVKGRFTISRDNAKNSLYLQMNSLRAEDTALYYCASTVEVAHRRLYKYLEVWGQGTLVTVSSASTKGPSVFPLAPSSKSTSGGTAALGCLVKDYFPEPVTVSWNSGALTSGVHTFPAVLQSSGLYSLSSVVTVPSSSLGTQTYICNVNHKPSNTKVDKRVEPKSCDKTHTCPPCPAPEAAGGPSVFLFPPKPKDTLYITREPEVTCVVVDVSHEDPEVKFNWYVDGVEVHNAKTKPREEQYNSTYRVVSVLTVLHQDWLNGKEYKCKVSNKALPAPIEKTISKAKGQPREPQVCTLPPSRDELTKNQVSLSCAVKGFYPSDIAVEWESNGQPENNYKTTPPVLDSDGSFFLVSKLTVDKSRWQQGNVFSCSVMHEALHNHYTQKSLSLSPGK
light 1: QAGLTQPPSVSVAPGQTARITCGGNNIGSKSVHWYQQKPGQAPVLVVYGDSDRPSGIPERFSGSNSGNTATLTISRVEAGDEADYYCQVWDISSDHVVFGGGTQLTVLRTVAAPSVFIFPPSDEQLKSGTASVVCLLNNFYPREAKVQWKVDNALQSGNSQESVTEQDSKDSTYSLSSTLTLSKADYEKHKVYACEVTHQGLSSPVTKSFNRGEC
heavy 2: not shown
light 2: QPVLTQPLSVSVALGQTARITCGGNNIGSKNVHWYQQKPGQAPVLVIYRDSNRPSGIPERFSGSNSGNTATLTISRAQAGDEADYYCQVWDSSTAVFGTGTKLTVLQQRQVKPEAWLSSGPSPGPGRLQLVCHVSGFYPKPVWVMWMRGEQEQQGTQLGDILPNANWTWYLRATLDVADGEAAGLSCRVKHSSLEGQDIILYWRGSC
notes: Produced in CHO cells
As to B3, in experiment [1], the binding result is reported as “no binding (tested: 757.6 nM)”. For the same molecule, the “Signal level (nm)” value is 0.0221 nm in experiment [2] and 0.537 nm in experiment [5]. Besides, the results for the Kd in experiment [3] and in experiment [4] were 4.49 nM and 0.831 nM, respectively. For the same molecule, the koff in experiment [3] came to 0.00109 s⁻¹; in experiment [4] it was 0.000314 s⁻¹. For the same molecule, the kon is 242000 M⁻¹ s⁻¹ in experiment [3] and 378000 M⁻¹ s⁻¹ in experiment [4].
